Key:
[1] = target: T1, QTRT1 (catalytic subunit of TGT);QTRT2 (accessory subunit of TGT) (Mus musculus;Mus musculus, UniProt Q9JMA2;B8ZXI1 1-403;1-415, |); assay: MST; no 9dG; MST: 20 mM HEPES pH 7.5, 75 mM NaCl, 1 mM MgCl2, 0.025% Tween 20, 2 mM DTT, 50 nM Cy5-tRNA, 25 C, +/-100 uM 9dG; EMSA: same buffer without Tween, 100 uM 9dG, 200 nM tRNA, 4 C, 6% native gel; conditions: protein: recombinant;recombinant, copies: 1;1, label: Cy5-cytosine incorporated during transcription (MST, EMSA)
[2] = target: T1, QTRT1 (catalytic subunit of TGT);QTRT2 …; assay: MST; 100 uM 9-deazaguanine; apparent Kd (covalent trapping); MST: 20 mM HEPES pH 7.5, 75 mM NaCl, 1 mM MgCl2, 0.025% Tween 20, 2 mM DTT, 50 nM Cy5-tRNA, 25 C, +/-100 uM 9dG; EMSA: same buffer without Tween, 100 uM 9dG, 200 nM tRNA, 4 C, 6% native gel; conditions: protein: recombinant;recombinant; copies: 1;1; label: Cy5-cytosine incorporated during transcription (MST, EMSA); tRNA cloverleaf with intron in anticodon loop
[3] = target: T1, QTRT1 (catalytic subunit of TGT);QTRT2 …; assay: MST; no 9dG; value from peer review file (main text calls 2-1 slightly weaker); MST: 20 mM HEPES pH 7.5, 75 mM NaCl, 1 mM MgCl2, 0.025% Tween 20, 2 mM DTT, 50 nM Cy5-tRNA, 25 C, +/-100 uM 9dG; EMSA: same buffer without Tween, 100 uM 9dG, 200 nM tRNA, 4 C, 6% native gel; conditions: protein: recombinant;recombinant; copies: 1;1; label: Cy5-cytosine incorporated during transcription (MST); tRNA cloverleaf with intron in anticodon loop
[4] = target: T1, QTRT1 (catalytic subunit of TGT);QTRT2 …; assay: MST; 9-deazaguanine; apparent Kd from peer review file; MST: 20 mM HEPES pH 7.5, 75 mM NaCl, 1 mM MgCl2, 0.025% Tween 20, 2 mM DTT, 50 nM Cy5-tRNA, 25 C, +/-100 uM 9dG; EMSA: same buffer without Tween, 100 uM 9dG, 200 nM tRNA, 4 C, 6% native gel; conditions: protein: recombinant;recombinant; copies: 1;1; label: Cy5-cytosine incorporated during transcription (MST); tRNA cloverleaf with intron in anticodon loop
[5] = target: T1, QTRT1 (catalytic subunit of TGT);QTRT2 …; assay: MST; 100 uM 9-deazaguanine; apparent Kd (covalent trapping; review file cites 1.2); MST: 20 mM HEPES pH 7.5, 75 mM NaCl, 1 mM MgCl2, 0.025% Tween 20, 2 mM DTT, 50 nM Cy5-tRNA, 25 C, +/-100 uM 9dG; EMSA: same buffer without Tween, 100 uM 9dG, 200 nM tRNA, 4 C, 6% native gel; conditions: protein: recombinant;recombinant; copies: 1;1; label: Cy5-cytosine incorporated during transcription (MST, EMSA); tRNA cloverleaf

T1 sequence (Q9JMA2 whole entry, chain 1 of 2): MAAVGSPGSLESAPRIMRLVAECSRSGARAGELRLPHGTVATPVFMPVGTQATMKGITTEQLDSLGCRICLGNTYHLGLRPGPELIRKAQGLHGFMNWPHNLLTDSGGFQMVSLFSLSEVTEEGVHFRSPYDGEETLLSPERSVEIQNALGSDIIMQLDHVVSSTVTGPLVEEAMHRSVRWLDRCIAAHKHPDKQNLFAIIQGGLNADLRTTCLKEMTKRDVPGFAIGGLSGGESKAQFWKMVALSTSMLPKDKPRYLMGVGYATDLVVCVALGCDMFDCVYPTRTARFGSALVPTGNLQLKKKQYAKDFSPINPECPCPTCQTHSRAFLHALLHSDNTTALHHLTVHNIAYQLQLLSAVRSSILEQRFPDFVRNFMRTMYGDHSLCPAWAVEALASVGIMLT
T1 sequence (B8ZXI1 whole entry, chain 2 of 2): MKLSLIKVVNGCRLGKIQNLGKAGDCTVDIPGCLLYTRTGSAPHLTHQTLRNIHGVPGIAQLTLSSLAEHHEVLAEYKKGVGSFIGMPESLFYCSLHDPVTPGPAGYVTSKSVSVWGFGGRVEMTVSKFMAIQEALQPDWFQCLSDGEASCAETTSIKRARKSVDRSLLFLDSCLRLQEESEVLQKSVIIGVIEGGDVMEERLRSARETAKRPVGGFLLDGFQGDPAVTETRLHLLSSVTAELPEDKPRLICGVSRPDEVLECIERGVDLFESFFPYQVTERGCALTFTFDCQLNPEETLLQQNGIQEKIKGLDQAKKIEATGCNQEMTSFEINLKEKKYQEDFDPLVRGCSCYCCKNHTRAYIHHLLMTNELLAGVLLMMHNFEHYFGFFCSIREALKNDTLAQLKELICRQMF

B1: m_pre-tRNATyr 1-4 (intron-containing) (structured_RNA)
RNA: GGCCUUCGAUAGCUCAGUUGGUAGAGCGGAGGACUGUAGGUCAUUGUUCUAGAAAUCCUUAGGUCGCUGGUUCGAAUCCGGCUCGAAGGA
modifications: none (unmodified transcript)
Which results are given for B1?
Kd ([1]; tRNA cloverleaf with intron in anticodon loop): 6 ± 0.7 µM; Kd [2]: 2.4 ± 0.2 µM

B2: m_pre-tRNATyr 2-1 (intron-containing) (structured_RNA)
RNA: GGCCUUCGAUAGCUCAGUUGGUAGAGCGGAGGACUGUAGUCAGUACAAUAUGGUAAUCCUUAGGUCGCUGGUUCGAUUCCGGCUCGAAGGA
modifications: none (unmodified transcript)
With B2 as the binder, how does the Kd [3] read?
The Kd was 2.7 µM.

What about the Kd [4] of the same binder?
Its Kd is 1.4 µM.

B3: m_tRNATyr (mature, GUA) (structured_RNA)
RNA: GGCCUUCGAUAGCUCAGUUGGUAGAGCGGAGGACUGUAGAUCCUUAGGUCGCUGGUUCGAAUCCGGCUCGAAGGA
modifications: none (unmodified transcript)
With B3 as the binder, how does the Kd [5] read?
The Kd was 1.1 ± 0.3 µM.

What about the Kd ([1]; tRNA cloverleaf) of the same binder?
The Kd was 2.4 ± 0.7 µM.
